Ends that are not written are not given here.

Here are results for 4 molecules from US20190211057A1 (NATIONAL YANG MING UNIVERSITY, published 2019).

The target of assay [1] is T1, integrin αvβ3 receptor on cells (HUVEC, U87MG, MCF-7, ES-2-luc) (human, UniProt P06756 31-1048; P05106 27-788). Nature of the assay: cell-based or functional assay.
Assay [2] addresses T1, integrin αvβ3 receptor on cells (HUVEC, …). Description: cell-based or functional assay. The source holds these as a separate data set.
The target is the same in assay [3]. Description: cell-based or functional assay. This is another data set of the same source.
Assay [4] shares this target. Description: cell ELISA, HUVEC against MCF-7. For orientation: In an ELISA, binding on a coated surface is turned into a signal by an enzyme label.
For assay [5] the target is unchanged. Description: cell ELISA, U87MG against MCF-7.
For assay [6] the target is unchanged. Description: cell ELISA on HUVEC cells, anti-His-HRP.
Excerpt: (§1) After reacted with anti-His-HRP antibody and TMB substrate, ELISA reader (OD450 nm) is used to detect the amount of recombinant protein bound to the cells, and the binding curve is drawn. The nonlinear curve of the prism software is used to make a diagram and calculate the dissociation constant (Kd).
(§2) The anti-His6-Tag-HRP antibody and TMB show the color reagent to detect the amount of recombinant protein bound to the cell, then the dissociation constant Kd value of the recombinant protein and the integrin αᵥβ₃ receptor is calculated and a binding curve is drawn.
Assay [7] has the same target. Nature of the assay: cell ELISA on U87MG cells, anti-His-HRP.
Excerpt: as §1, §2
For assay [8] the target is unchanged. Description: cell ELISA on HUVEC cells (repeats Table 2).
The target is the same in assay [9]. Description: cell ELISA on MCF-7 cells (repeats Table 2).
Assay [10] has the same target. Description: cell ELISA on U87MG cells (repeats Table 2).
Assay [11] has as its target T2, integrin αvβ3 receptor (UniProt P06756 31-992; P05106 27-718).
T2 construct: also called αvβ3 integrin; αvβ3 integrin receptor
Nature of the assay: ELISA on integrin αvβ3 receptor (repeats Table 14).

Assay [12] concerns the target T1, integrin αvβ3 receptor on cells (HUVEC, …). Nature of the assay: cell ELISA on MCF-7 cells (low αvβ3 expression), anti-His-HRP.
Excerpt: as §1, §2
Assay [13] deals with T2, integrin αvβ3 receptor. Nature of the assay: ELISA on integrin αvβ3 receptor, one site-specific binding fit.
Excerpt: The curve and receptor binding ability parameters (see FIG. 19 and Table 14) are fitted by the binding ability of DTPA-modified protein and integrin αᵥβ₃ receptor through the One site-Specific binding formula in the Graph prism program.
In assay [14] the target is T2, integrin αvβ3 receptor. Description: ELISA on integrin αvβ3 receptor, anti-His6-HRP detection, curve fit.
Excerpt: The dissociation constant Kd is obtained by prism software with curve fitting method.
The target of assay [15] is T2, integrin αvβ3 receptor. Nature of the assay: ELISA on integrin αvβ3 receptor, after simulated labelling conditions.
Assay [16] concerns the target T2, integrin αvβ3 receptor. Nature of the assay: ELISA on integrin αvβ3 receptor, after simulated labelling and challenge with 10-fold molar excess of EDTA.
The target in assay [17] is T3, integrin αvβ3 receptor on cells (HUVEC, U87MG, MCF-7, ES-2-luc) (human), P06756.
T3 chain 1: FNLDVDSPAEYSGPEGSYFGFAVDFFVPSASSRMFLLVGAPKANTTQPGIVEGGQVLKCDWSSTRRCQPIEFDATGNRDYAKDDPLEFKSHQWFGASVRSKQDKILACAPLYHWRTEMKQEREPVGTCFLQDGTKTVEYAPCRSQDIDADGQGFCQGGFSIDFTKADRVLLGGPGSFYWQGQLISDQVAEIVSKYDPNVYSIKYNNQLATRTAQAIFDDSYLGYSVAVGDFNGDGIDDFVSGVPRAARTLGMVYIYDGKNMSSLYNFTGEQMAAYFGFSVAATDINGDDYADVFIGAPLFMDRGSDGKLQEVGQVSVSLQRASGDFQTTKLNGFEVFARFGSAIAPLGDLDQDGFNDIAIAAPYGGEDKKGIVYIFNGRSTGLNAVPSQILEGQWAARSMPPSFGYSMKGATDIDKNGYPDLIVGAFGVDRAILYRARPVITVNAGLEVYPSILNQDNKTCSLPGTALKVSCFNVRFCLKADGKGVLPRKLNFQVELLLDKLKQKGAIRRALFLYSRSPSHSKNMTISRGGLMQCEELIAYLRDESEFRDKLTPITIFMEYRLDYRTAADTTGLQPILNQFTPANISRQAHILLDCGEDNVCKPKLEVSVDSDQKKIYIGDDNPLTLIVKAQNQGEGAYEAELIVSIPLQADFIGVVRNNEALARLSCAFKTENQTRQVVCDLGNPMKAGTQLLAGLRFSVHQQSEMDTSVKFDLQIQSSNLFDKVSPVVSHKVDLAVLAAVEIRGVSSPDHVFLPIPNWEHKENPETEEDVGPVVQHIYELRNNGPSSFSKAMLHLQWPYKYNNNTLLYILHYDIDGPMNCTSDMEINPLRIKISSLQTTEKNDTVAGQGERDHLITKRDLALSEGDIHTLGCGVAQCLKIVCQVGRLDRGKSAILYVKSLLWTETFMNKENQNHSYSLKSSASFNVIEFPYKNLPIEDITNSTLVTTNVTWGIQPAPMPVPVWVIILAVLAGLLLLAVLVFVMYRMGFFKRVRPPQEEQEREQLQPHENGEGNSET
T3 chain 2: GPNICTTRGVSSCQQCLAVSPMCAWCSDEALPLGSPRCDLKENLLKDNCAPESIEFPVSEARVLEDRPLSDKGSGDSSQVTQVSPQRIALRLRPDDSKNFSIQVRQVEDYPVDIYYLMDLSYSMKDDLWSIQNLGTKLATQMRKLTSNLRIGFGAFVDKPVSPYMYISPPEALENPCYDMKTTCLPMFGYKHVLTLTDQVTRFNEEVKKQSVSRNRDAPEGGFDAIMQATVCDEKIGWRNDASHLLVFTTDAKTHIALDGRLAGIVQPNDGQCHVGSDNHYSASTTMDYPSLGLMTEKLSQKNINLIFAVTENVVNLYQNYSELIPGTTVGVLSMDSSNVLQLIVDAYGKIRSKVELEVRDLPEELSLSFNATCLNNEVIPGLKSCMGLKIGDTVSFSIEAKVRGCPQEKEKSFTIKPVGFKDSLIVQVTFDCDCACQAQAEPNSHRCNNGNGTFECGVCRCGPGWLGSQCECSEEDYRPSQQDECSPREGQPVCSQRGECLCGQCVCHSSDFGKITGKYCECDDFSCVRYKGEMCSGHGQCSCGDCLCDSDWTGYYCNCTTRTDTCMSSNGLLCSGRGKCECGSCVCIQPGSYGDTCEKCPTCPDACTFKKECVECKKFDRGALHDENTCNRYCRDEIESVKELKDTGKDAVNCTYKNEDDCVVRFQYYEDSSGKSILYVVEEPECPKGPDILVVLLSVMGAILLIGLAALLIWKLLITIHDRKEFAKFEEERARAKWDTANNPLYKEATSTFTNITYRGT
Nature of the assay: competitive cell uptake on HUVEC cells, cRGDfk at 1000-fold molar excess; labelled ^111In-DTPA-RGD4C-yCD. To be noted: remark: other sources report otherwise.

Assay [18] concerns the target T3, integrin αvβ3 receptor on cells (HUVEC, …). Description: competitive cell uptake on MCF-7 cells (low αvβ3), cRGDfk at 1000-fold molar excess; labelled ^111In-DTPA-RGD4C-yCD. The settings on record: remark: other sources report otherwise.
For assay [19] the target is unchanged. Nature of the assay: competitive cell uptake on ES-2-luc cells, cRGDfk at 1000-fold molar excess; labelled competitor ^111In-DTPA-RGD4C-yCD. The settings on record: remark: other sources report otherwise.
Assay [20] concerns the target T2, integrin αvβ3 receptor. Description: ELISA on integrin αvβ3 receptor; paragraph 109 says yCD can not be bound before and after modification.

B1: RGD4C-yCD (other)
chain: MACDCRGDCFCVTGGMASKWDQKGMDIAYEEAALGYKEGGVPIGGCLINNKDGSVLGRGHNMRFQKGSATLHGEISTLENCGRLEGKVYKDTTLYTTLSPCDMCTGAIIMYGIPRCVVGENVNFKSKGEKYLQTRGHEVVVVDDERCKKIMKQFIDERPQDWFEDIGELEHHHHHH
notes: Fusion of the RGD4C peptide with yeast cytosine deaminase, expressed from pET28a(+) in E. coli and detected by its His6 tag; also called RGD4C-yCD recombinant protein
Regarding B1, in assay [1], the “IC50 of 5-FC, MTT cytotoxicity, HUVEC cells incubated with 500 nM protein then washed” value was 23.6 µM. In assay [1], the “IC50 of 5-FC, MTT cytotoxicity, MCF-7 cells (low αvβ3) incubated with 500 nM protein then washed” value worked out at 5130 µM. Also, the “IC50 of 5-FC, MTT cytotoxicity, U87MG cells incubated with 500 nM protein then washed” value in assay [1] was determined as 37.1 µM. Also, the “IC50 of 5-FC, MTT cytotoxicity, HUVEC cells incubated with 500 nM protein then washed (repeats Table 3)” value in assay [2] came to 23.6 µM. Moreover, in assay [2], the “IC50 of 5-FC, MTT cytotoxicity, MCF-7 cells (low αvβ3) incubated with 500 nM protein then washed (repeats Table 3)” value came out at 5130 µM. The “IC50 of 5-FC, MTT cytotoxicity, U87MG cells incubated with 500 nM protein then washed (repeats Table 3)” value in assay [2] came to 37.1 µM. The “protein reaction concentration IC50 of cytotoxic effect, MTT, HUVEC cells, 100 µM 5-FC” value in assay [3] was determined as 0.209 µM. Also, the “protein reaction concentration IC50 of cytotoxic effect, MTT, U87MG cells, 100 µM 5-FC” value in [3] came to 0.177 µM. Further, the “fold cell binding ability against MCF-7” value in [4] is around 7.7 fold; in assay [5], around 6.8 fold. Moreover, the equilibrium dissociation constant (Kd) in assay [6] came out at 0.0475 µM; in assay [7] it was 0.0537 µM; in assay [8], 0.0475 µM; in [9], 0.366 µM; in assay [10] it was 0.0537 µM; with integrin αvβ3 receptor [11], 0.0207 µM. Besides, the Kd was found to be 0.366 µM in assay [12], 0.0207 µM with integrin αvβ3 receptor [13] and 0.0395 µM in the assay with integrin αvβ3 receptor [14].

B2: In-DTPA-RGD4C-yCD (other)
chain: MACDCRGDCFCVTGGMASKWDQKGMDIAYEEAALGYKEGGVPIGGCLINNKDGSVLGRGHNMRFQKGSATLHGEISTLENCGRLEGKVYKDTTLYTTLSPCDMCTGAIIMYGIPRCVVGENVNFKSKGEKYLQTRGHEVVVVDDERCKKIMKQFIDERPQDWFEDIGELEHHHHHH
modifications: DTPA on primary amines, loaded with the stable isotope of indium
notes: also called In-DTPA- RGD4C-yCD 10x EDTA
For the molecule B2, the Kd was 0.0254 µM with integrin αvβ3 receptor [15] and 0.0346 µM with integrin αvβ3 receptor [16].

B3: cRGDfk (peptide)
peptide: RGDFK
modifications: not fully specified (residues 4, 5); also: prefix c and lower-case f, k not explained
Turning to B3, the percent decrease of uptake worked out at 65% in assay [17], 45% in assay [18] and 70% in assay [19].

B4: DTPA-yCD (enzyme)
chain: MVVTGGMASKWDQKGMDIAYEEAALGYKEGGVPIGGCLINNKDGSVLGRGHNMRFQKGSATLHGEISTLENCGRLEGKVYKDTTLYTTLSPCDMCTGAIIMYGIPRCVVGENVNFKSKGEKYLQTRGHEVVVVDDERCKKIMKQFIDERPQDWFEDIGELEHHHHHH
modifications: DTPA on primary amines, 1.16 DTPA per protein on average
Take B4: the binding result with integrin αvβ3 receptor [20] is “no binding”.

The Kd is the constant that tells how readily two partners part at equilibrium. Read a low Kd as tighter binding.
